Measurements as given in publication PMC3299322.

Assays:
[1] = target: Tissue factor (residues 1–209), soluble, immobilised on CNBr-activated sepharose-4B; experiment: radioligand binding; as a1 but in human serum, 0 hour (no incubation in serum before the sepharose was added); binding 1 h at room temperature; median of 3
[2] = target: Tissue factor (residues 1–209), soluble, immobilised on CNBr-activated sepharose-4B; experiment: radioligand binding; 111In-DTPA-rFVIIa incubated 1 h at room temperature with TF (1–209)-sepharose (50% suspension) in assay buffer (10 mM glycyl-glycine, 150 mM NaCl, 10 mM CaCl2, 0.1% BSA, pH 7.5); beads and filtrate separated in Spin-X filter tubes and counted; median of 3 labellings
[3] = target: Tissue factor (residues 1–209), soluble, immobilised on CNBr-activated sepharose-4B; experiment: radioligand binding; as a1 but after 1 hour of incubation of 111In-DTPA-rFVIIa in 270 uL human serum at room temperature before the sepharose was added; binding 1 h at room temperature; median of 3

Substance: 111In-DTPA-rFVIIa (111Indium-labelled, DTPA-conjugated recombinant activated coagulation factor VII) (enzyme)
- binding efficiency (%) [1]: 39%
- binding efficiency (%) [2]: 48%
- binding efficiency (%) [3]: 36%
